# Data as given in publication PMC5678078 (2017).
# T1: recombinant matriptase protease domain with an N-terminal thioredoxin tag (Trx-MTX PD) (human) (UniProt Q9Y5Y6)
# T1 sequence: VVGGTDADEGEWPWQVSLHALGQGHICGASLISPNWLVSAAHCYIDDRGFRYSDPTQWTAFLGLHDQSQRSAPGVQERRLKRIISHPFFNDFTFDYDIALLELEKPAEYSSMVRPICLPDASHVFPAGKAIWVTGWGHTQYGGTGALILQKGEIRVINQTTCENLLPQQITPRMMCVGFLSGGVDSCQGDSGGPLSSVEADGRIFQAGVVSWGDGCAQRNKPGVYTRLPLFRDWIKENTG
# T2: recombinant matriptase protease domain with an N-terminal thioredoxin tag (Trx-MTX PD) (human, UniProt Q9Y5Y6 615-854)
# T2 chain: T1 sequence
# B1: recombinant HAI-2 wild type (rHAI-2 WT) from the baculovirus expression system (domain or fragment)
# chain: ADRERSIHDFCLVSKVVGRCRASMPRWWYNVTDGSCQLFVYGGCDGNSNNYLTKEECLKKCATVTENATGDLATSRNAADSSVPSAPRRQDSEDHSSDMFNYEEYCTANAVTGPCRASFPRWYFDVERNSCNNFIYGGCRGNKNSYRSEEACMLRCFRQQENPPLPLGSK
# B2: GST fusion protein of HAI-2 Kunitz domain 1 (GST-KD1) (domain or fragment)
# chain: CLVSKVVGRCRASMPRWWYNVTDGSCQLFVYGGCDGNSNNYLTKEECLKKC
# B3: GST fusion protein of HAI-2 Kunitz domain 2 (GST-KD2) (domain or fragment)
# chain: CTANAVTGPCRASFPRWYFDVERNSCNNFIYGGCRGNKNSYRSEEACMLRC
# Experiments:
# [1] = biological target: T1, recombinant matriptase protease domain with an N-terminal thioredoxin tag (Trx-MTX PD) (human)
# [2] = biological target: T2, recombinant matriptase protease domain …; assay: SPR
# [3] = biological target: T1, recombinant matriptase protease domain with an N-terminal thioredoxin tag (Trx-MTX PD) (human); assay: SPR; BIAcore; Trx-MTX PD amine-coupled to a CM5 chip; GST fusion proteins as analytes at 30 µl/min, 120 sec association, 180 sec dissociation; 10 mM HEPES, 150 mM NaCl, pH 7.4; KD by affinity analysis (BIAevaluation), called estimated
Molecule,Kd [2] [nM],Kd [3] [nM],further results
recombinant HAI-2 KD2-deleted mutant (rHAI-2ΔKD2) from the baculovirus expression system (from UniProt O43291 28-197) (domain or fragment),–,–,inhibition of the in vitro proteolytic activity of Trx-MTX PD (100 nM) on Boc-Gln-Ala-Arg-AMC by rHAI-2ΔKD2 (500 nM) [1]: 99%
recombinant HAI-2 KD1-deleted mutant (rHAI-2ΔKD1) from the baculovirus expression system (from UniProt O43291 28-197) (domain or fragment),–,–,inhibition of the in vitro proteolytic activity of Trx-MTX PD (100 nM) on Boc-Gln-Ala-Arg-AMC by rHAI-2ΔKD1 (500 nM) [1]: 80%
B1,–,–,inhibition of the in vitro proteolytic activity of Trx-MTX PD (100 nM) on Boc-Gln-Ala-Arg-AMC by rHAI-2 WT (500 nM) [1]: 99%
B2,45.7,10,–
B3,35.5,10,–
